Measurements taken from paper PMC12774657.

What was measured:
[1] = target: HIF1a bHLH-PASA-PASB;ARNT bHLH-PASA-PASB (;) (UniProt Q16665+P27540); test: EMSA; conditions: EMSA: 10 nM probe, 20 mM Tris pH 8.0, 250 mM NaCl, 16 ug/ml salmon sperm ssDNA, 30 ug/ml BSA, 1.25 mM MgCl2, 6% glycerol, 10 mM DTT, room temperature 30 min …
[2] = target: HIF2a bHLH-PASA-PASB;ARNT bHLH-PASA-PASB (;) (UniProt Q99814+P27540); test: EMSA; conditions: EMSA: 10 nM probe, 20 mM Tris pH 8.0, 250 mM NaCl, 16 ug/ml salmon sperm ssDNA, 30 ug/ml BSA, 1.25 mM MgCl2, 6% glycerol, 10 mM DTT, room temperature 30 min …

In the case of TACGTG-containing EMSA probe, the binding signal (fold affinity vs HIF2a/ARNT) [1] was 2 and the binding signal (reference (HIF1a/ARNT ~2 fold higher)) [2] was 1.
